Laboratory results: the domain aggregation screens of Martell et al. (2025)

Test: soluble fraction after stress (log2 fold change); higher = more stays soluble; pooled small domains, quantitative proteomics
Conditions: stress: 50 degC
In short: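 Pooled custom libraries of small protein domains were each held under stress at 50°C. The read-out, high-throughput quantitative proteomics, tracked how much of each protein stayed soluble. This is reported as a base-two log fold change used to indicate aggregation propensity. Higher values mean more protein remains in solution.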

Sequence | soluble fraction (log2)
HMFLSSEERRERIIEVLRQQDEVTVVELSHRLGVSEVTTRKDLQQLEEQGYLTRVRGGAVVSGRGQL | -0.0183
HMSGPVITEERNIANALISGLANMKETPTREQVERKAQQIAELFGYTGDLRNIITEAMISVDT | 0.059
HMISTVFYVDVKGEVHHPGVYQMKAENRVKDLIEAAGGFTPLADDQKLNLAQLLEDQMVIVVPKKGEEV | 0.278
HMPERMLEPLLNGNEIMKVTQLQPGPKVGLIRDALLQAQISGDVTDTESAKAFVQDYAKRNI | 0.06
HMYLQKGISNGKVYLSIVHGYRDPVTKKVRRKTIRSLGYLEDLEKQYADPIKHFEAVVAKMNEEEALE | -0.517
HMQDTQAEEGETLLDALRRIHPESSTGTLRRMLTQGRVQLDGDSVHAAKTVLSAGQRVEVVAR | 0.0446
HMDKNLQYADTPKGKLREYIKNLPNGSTVNRQKLAEEFGIKKQSMGTVTEVFQEFPDKNFKFVNP | 0.119
HMRNSVQREWIYDYIQRQDAHLSADEIYEGLLKEGKNISLATVYRNLSILVDEYKIASVMTDSKKQVYDK | -1.23
HMAVDVNKATAAELDSIKGIGPAISAKILEEKKKGGNFKDWNDLVTRVSGVGEANAAKFSSEGLTVGGAS | 0.0629
HMSDIIVQGNRRLDTDLIITDSQIREIGTDEKSLSLAVKNLYKTGYFENVQIFKDNSVVFINVKENQ | -0.103
HMDTPMYMAIIEEVRFQIANEILKEGEQLPSIRNLAKTLKVSVITVKRAYKELEEAGYITTIPAKGSKVS | -1.43
HMQIAEAESLGQRLLQQSINNIVGRDEAITEERLNRVLSQYSLTGRDELMAQIGLGNRNSSLVAKAMYDI | 0.0632
HMAVVAPLAGSVARVLVADGDEIEAGQVLLVLEAMKMETEITAPKAGKVGAILVGKGDSVQGGQGLR | -0.051
HMVLANLQAAEQGDLGIKEGEKLTILQTRPDGWWTARNANGETGLVPK | 0.173
HMLILDTDGRYVIKRGDSLSEILEKIANGSNINLNLLKRAFVTANPKAFKRANPNWMYANAR | -0.113
HMITERVPVPDLTGMPLMEAIKTLNSSKLQYQVVGSVIEGDENRIIDQTPKPDIMVSEKSIVLLYLETYRG | -0.509
HMRVKLVKKSILASGGENIRVDKFLSNHILTMTRTQIKKLFLDGLVQVNKSFVKPGSILKGNEIITFSIPE | -1.8
HMVTEKNALTIEIEDLTKRFGNQRESLLPILQEVQLKHGHISDFAQQEIARLLDIHPVEVYGVVTFFSFLS | -2.21
HMEAEMLYQVKVKITNLVIRSGAGAIYPIVKRYASGVLPIYEEKNGYGKIAVGQWISLSPEFVERVD | -0.385
HMSLTAQVFTDRGKVLLSENKFTEAIDQFTKALAMDKVYIEALNRRIEAYQHLGLTELAAKDEALLGTL | -0.755
HMVDETDVPTFTDMTLEEAQNEAKQRNLKLEITESPSDKEKDTILEQDPEPGKTVASGSTVKLTVSNGEE | -0.14
HMATPKRGFRKQLAPLVQSGTITREEAGELSRSSGDATALRTKIGELMKAGKLTRKEAGELYSDAFPENA | 0.153
HMTVDYDKFTKDTVVQHNKFGKGVIIMTSGDGEDKIASIAFQGLGVKRFSLAIAASNLKILGKVNED | -0.133
HMKPVYNKVEIPRGGEYALVLSDGTKVHLNSMSSLRFPVAFTTGKREVELQGEAYFEVSKTGQPFIVNV | -0.0523
HMDPEEETLKNMQRMLQDSGPLKKTEFSLLAKSLGIAEKKARKLIDRGRGRFWTVESGEQKNTQLVTPIQ | -0.0247
HMGVGVTAPLAGNIFKIVKQPGDVVASGDVVLILEAMKMETEIRAAAGGTVKQVLVREGDAVDAGHTLMTL | -0.309
HMLSTNDYNENKNKLIKDFEIKFIIKHLKLNKGNVAATARSINFHPVSLRQKIAKLGIDVDEVMAG | -1.84
HMAGPRRRLLDAAIDRAAERGLGDLSLRALAEELGTSHRMLSHHFGSKDGLWLAIVEEVERRQ | -0.952
HMQSSDQTDNIYENAVSIVLETGKASASHLQRVLGIDYNLAAHLIDKMEDGGLLSPPNYLGHRDVYGYT | 0.0916
HMNDRLFQILYLLLEKGTMTAPELSRALEVSVRTIYRDIDALSLAGVPVYATQGKNGGVSLLPNY | -1.24
